B1: Autophagy-related protein 36 (Saccharomyces cerevisiae), P46983 (parent)
chain: MASVNNYQVDCGSRSARIQPRINNGIHDEESLFEVLELSEEEFELDFHRLKSFNDVRVINNPDLSPECTNTAISRDETLESASSAFEVPSDEIAILSISSDSNKNSPPSEQPAPALRNIRSSSNSDRIDEWCLGSHLFNELHQNVPQSSDGVNHGFPVYSFKERELYTSAKLKKLTNAQRIAVQKLSRDLYPILRTCYREKTRRQLLTYHHERIFDDIPSFFPQRDFIFNYYSMPLEFDRLSDVDIDSSSRSRFTDESTGETLNRSPSAASSSLENTSWFGWTLLSRFLDREW
partner: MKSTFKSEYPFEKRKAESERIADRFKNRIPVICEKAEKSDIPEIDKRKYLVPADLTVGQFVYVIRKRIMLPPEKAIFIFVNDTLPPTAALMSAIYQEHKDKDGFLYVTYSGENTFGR
B2: Autophagy-related protein 36 (Saccharomyces cerevisiae), P46983 (parent)
chain: B1 chain
partner: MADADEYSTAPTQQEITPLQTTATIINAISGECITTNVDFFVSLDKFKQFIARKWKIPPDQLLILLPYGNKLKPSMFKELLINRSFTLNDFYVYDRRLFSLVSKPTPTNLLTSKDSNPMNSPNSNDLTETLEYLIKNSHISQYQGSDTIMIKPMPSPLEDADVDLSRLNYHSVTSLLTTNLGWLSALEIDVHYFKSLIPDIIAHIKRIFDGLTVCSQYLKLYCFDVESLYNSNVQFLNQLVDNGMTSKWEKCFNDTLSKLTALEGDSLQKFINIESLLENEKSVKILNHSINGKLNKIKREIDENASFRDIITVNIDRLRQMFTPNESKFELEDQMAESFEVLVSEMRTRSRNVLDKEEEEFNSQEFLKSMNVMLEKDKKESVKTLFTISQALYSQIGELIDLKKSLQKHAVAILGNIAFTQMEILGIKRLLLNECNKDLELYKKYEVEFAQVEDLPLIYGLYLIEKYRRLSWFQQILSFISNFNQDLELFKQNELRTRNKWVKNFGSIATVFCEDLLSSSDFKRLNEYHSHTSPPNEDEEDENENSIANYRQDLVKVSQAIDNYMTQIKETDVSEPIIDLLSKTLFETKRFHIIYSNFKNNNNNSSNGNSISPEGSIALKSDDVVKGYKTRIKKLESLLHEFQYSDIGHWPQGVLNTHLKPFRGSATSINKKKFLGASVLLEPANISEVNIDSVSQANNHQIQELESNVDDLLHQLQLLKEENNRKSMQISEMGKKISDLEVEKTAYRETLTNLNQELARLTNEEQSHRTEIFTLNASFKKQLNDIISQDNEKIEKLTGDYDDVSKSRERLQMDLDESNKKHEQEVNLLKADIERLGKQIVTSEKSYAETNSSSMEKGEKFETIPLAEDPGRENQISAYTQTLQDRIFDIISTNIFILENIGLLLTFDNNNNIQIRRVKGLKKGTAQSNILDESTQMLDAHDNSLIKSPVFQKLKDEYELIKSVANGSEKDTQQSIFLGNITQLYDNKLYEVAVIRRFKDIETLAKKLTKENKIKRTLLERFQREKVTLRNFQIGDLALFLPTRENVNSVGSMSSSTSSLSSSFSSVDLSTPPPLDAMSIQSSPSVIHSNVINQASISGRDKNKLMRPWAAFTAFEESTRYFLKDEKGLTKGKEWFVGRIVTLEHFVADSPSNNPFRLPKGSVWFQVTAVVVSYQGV
B3: Autophagy-related protein 32 (Saccharomyces cerevisiae), P40458 (parent)
chain: MVLEYQQREGKGSSSKSMPPDSSSTTIHTCSEAQTGEDKGLLDPHLSVLELLSKTGHSPSPMGQNLVTSIDISGNHNVNDSISGSWQAIQPLDLGASFIPERCSSQTTNGSILSSSDTSEEEQELLQAPAADIINIIKQGQEGANVVSPSHPFKQLQKIISLPLPGKEKTPFNEQDDDGDEDEAFEEDSVTITKSLTSSTNSFVMPKLSLTQKNPVFRLLILGRTGSSFYQSIPKEYQSLFELPKYHDSATFPQYTGIVIIFQELREMVSLLNRIVQYSQGKPVIPICQPGQVIQVKNVLKSFLRNKLVKLLFPPVVVTNKRDLKKMFQRLQDLSLEYGEDVNEEDNDDEAIHTKSRSYCRNKKAENSKKKSPKSNKKPKRKKQKFFTSWFTWGISITIGISFGCCVTYFVTAAYEHQTVKSLSLRPSILASLLSLDSSSDTINTPATASPSSTEQFLWFDKGTLQINFHSDGFIMKSLTIIKETWGKMNTFVLHALSKPLKFLENLNKSSEFSIDESNRILALGYILL
partner: B1 partner
B4: Autophagy-related protein 32 (Saccharomyces cerevisiae), P40458 (parent)
chain: B3 chain
partner: B2 partner

Variants of: B1
Details: with atg8_yeast ATG8, P38182

| Variant | effect of a mutation on the interaction |
| --- | --- |
| S31A | disrupting interaction |

Variants of: B1
Details: with atg8_yeast ATG8, P38182
Remark: another data set of the same source

| Variant | effect of a mutation on the interaction |
| --- | --- |
| F33A;L36A | disrupting interaction |

Variants of: B2
Details: with atg11_yeast ATG11, Q12527

| Variant | effect of a mutation on the interaction |
| --- | --- |
| S97A | disrupting interaction |

Variants of: B3
Details: with atg8_yeast ATG8, P38182

| Variant | effect of a mutation on the interaction |
| --- | --- |
| S81A;S83A;S85A | disrupting interaction |

Variants of: B4
Details: with atg11_yeast ATG11, Q12527

| Variant | effect of a mutation on the interaction |
| --- | --- |
| S114A;S119A | disrupting interaction |

— IntAct's records for PubMed 23559066
